Laboratory results from patent publication US20250101076A1.

Biological target: extracellular domain of the growth hormone receptor (human) (UniProt P10912)
Test: competition ELISA, plate coated with GHR extracellular domain, inhibition of biotin-hGH binding

Sequence of UniProt P10912 (P10912 19-264): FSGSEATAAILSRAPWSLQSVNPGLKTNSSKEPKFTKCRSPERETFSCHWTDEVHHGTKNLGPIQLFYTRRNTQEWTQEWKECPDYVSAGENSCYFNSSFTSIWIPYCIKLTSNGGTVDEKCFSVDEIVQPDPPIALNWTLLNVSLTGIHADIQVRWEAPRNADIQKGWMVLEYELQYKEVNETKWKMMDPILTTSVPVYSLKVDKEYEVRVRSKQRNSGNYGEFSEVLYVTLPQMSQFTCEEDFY

IC50: 137 nM
Substance: pegvisomant (ligand)
